According to publication PMC10943277 (The Journal of Cell Biology, 2024):

Biological target: T1, Sly1 (wild-type) (S. cerevisiae, UniProt P22213 1-666)
T1 sequence: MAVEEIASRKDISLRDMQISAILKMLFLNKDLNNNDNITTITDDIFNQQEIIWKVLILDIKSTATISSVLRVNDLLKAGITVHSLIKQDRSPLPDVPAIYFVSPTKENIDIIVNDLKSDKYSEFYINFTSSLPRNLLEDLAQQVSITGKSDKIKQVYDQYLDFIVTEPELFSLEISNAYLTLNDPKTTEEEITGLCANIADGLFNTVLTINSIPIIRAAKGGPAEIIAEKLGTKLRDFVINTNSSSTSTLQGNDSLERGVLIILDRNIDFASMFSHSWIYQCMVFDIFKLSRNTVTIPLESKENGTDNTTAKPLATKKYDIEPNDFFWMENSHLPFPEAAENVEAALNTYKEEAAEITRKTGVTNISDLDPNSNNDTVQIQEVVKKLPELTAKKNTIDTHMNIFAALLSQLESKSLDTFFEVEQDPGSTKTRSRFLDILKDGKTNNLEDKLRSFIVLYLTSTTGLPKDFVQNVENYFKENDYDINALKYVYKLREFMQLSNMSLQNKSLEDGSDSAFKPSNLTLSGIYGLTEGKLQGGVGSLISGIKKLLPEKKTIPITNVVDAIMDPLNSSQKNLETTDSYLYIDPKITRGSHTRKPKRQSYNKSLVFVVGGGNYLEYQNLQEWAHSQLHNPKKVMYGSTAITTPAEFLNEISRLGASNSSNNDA
Test: pull-down

B1: GST-Sed5 cytoplasmic domain (domain or fragment, S. cerevisiae, UniProt Q01590 1-319, looked up)
chain: MNIKDRTSEFQQSVLSYKKRNKNFREQQRERLQEKESENFANNTTGNGKSVSEFQKKASGIAHEISSTAQLLSKLAVLAKRKPMFNDNPVEIAELSFLIKRKIYAIEQSLVQLSQLKKTDVNGNTSNQSSKQPSAVQHSKNVVNLLNTQMKNISGSFKDVLEERQRLEMANKDRWQKLTTDTGHAPADDQTQSNHAADLTTYNNSNPFMTSLLDESSEKNNNSSNQGELSFPQNDSQLMLMEEGQLSNNVYLQERNRAVETIESTIQEVGNLFQQLASMVQEQGEVIQRIDANVDDIDLNISGAQRELLKYFDRIKSNR
binding result: binds
